Columns and labels:
[1] = molecular target: Insolitispirillum peregrinum form II RuBisCO, wild type (Insolitispirillum peregrinum); assay: SEC-MALS + other: SAXS; SEC-SAXS-MALS; RuBisCO at 2 to 5 mg/ml, activated with excess NaHCO3; Shodex KW-803 column; 20 mM Hepes-OH pH 8.0, 300 mM NaCl, 10 mM MgCl2, 10 mM NaHCO3; oligomeric state of the enzyme
[2] = molecular target: Gallionella sp. form II RuBisCO, wild type (GWS1B) (Gallionella sp.); assay: as above
[3] = molecular target: Sulfurivirga caldicuralii form II RuBisCO (Sulfurivirga caldicuralii); assay: crystal structure; X-ray; RuBisCO activated and incubated with a tenfold molar excess of CABP; molecular replacement
[4] = molecular target: Sulfurivirga caldicuralii form II RuBisCO (Sulfurivirga caldicuralii); assay: SEC-MALS + other: SAXS; SEC-SAXS-MALS; RuBisCO at 2 to 5 mg/ml, activated with excess NaHCO3; Shodex KW-803 column; 20 mM Hepes-OH pH 8.0, 300 mM NaCl, 10 mM MgCl2, 10 mM NaHCO3; oligomeric state of the enzyme
[5] = molecular target: Gallionella sp. form II RuBisCO R131A (Gallionella sp.); assay: as above
[6] = molecular target: Gallionella sp. form II RuBisCO R98A (Gallionella sp.); assay: as above
[7] = molecular target: Rhodospirillaceae bacterium BRH_c57 form II RuBisCO (Rhodospirillaceae bacterium BRH_c57); assay: crystal structure; X-ray; RuBisCO activated and incubated with a tenfold molar excess of CABP; molecular replacement
[8] = molecular target: Rhodospirillaceae bacterium BRH_c57 form II RuBisCO (Rhodospirillaceae bacterium BRH_c57); assay: SEC-MALS + other: SAXS; SEC-SAXS-MALS; RuBisCO at 2 to 5 mg/ml, activated with excess NaHCO3; Shodex KW-803 column; 20 mM Hepes-OH pH 8.0, 300 mM NaCl, 10 mM MgCl2, 10 mM NaHCO3; oligomeric state of the enzyme

## Insolitispirillum peregrinum form II RuBisCO, wild type (enzyme)
[1]
  stoichiometry N: 2

## Gallionella sp. form II RuBisCO, wild type (GWS1B) (enzyme)
[2]
  stoichiometry N: 6

## Sulfurivirga caldicuralii form II RuBisCO (enzyme)
[3]
  stoichiometry N: 4
[4]
  stoichiometry N: 4

## Gallionella sp. form II RuBisCO R131A (enzyme)
[5]
  stoichiometry N: 2

## Gallionella sp. form II RuBisCO R98A (enzyme)
[6]
  stoichiometry N: 2

## Rhodospirillaceae bacterium BRH_c57 form II RuBisCO (enzyme)
[7]
  stoichiometry N: 6
[8]
  stoichiometry N: 6

Reference: paper PMC9417184
